Assay [1] deals with Phosphorylated Drosophila Ft(EC1-4) (Drosophila) (UniProt P33450). The assay is described as follows: ITC; MicroCal ITC200; fly Ft(EC1-4) ~50 µM, fly Ds(EC1-4) ~300 µM; proteins phosphorylated with Fj as needed; 20 °C; one set of sites.
Assay [2] has the same target. Nature of the assay: ITC; MicroCal ITC200; fly Ft(EC1-4) ~50 µM and Ds(EC1-4) ~300 µM, unmodified or phosphorylated with Fj; same conditions as for the human proteins (20 °C); fitted with one set of sites; two independent experiments.
For assay [3], the target named is Drosophila Ft(EC1–4), phosphorylated (Drosophila). Nature of the assay: ITC; fly Ft(EC1–4) at ~50 μM and Ds(EC1–4) at ~300 μM, unmodified or phosphorylated with Fj; same conditions as for the human proteins (20 °C); one set of sites.
For another assay, the target named is CDH23 EC1-EC2 (UniProt Q99PF4). Particulars: cited from earlier work.
Another assay concerns the target T1, Human Fat4(EC1-4) R152A (human, UniProt Q6V0I7 43-475, R152A).
T1 construct: human Fat4, EC1-EC4, aa43-475, with R152A in EC2; also called Fat4R152A(EC1-4); Fat4R152A
T1 sequence: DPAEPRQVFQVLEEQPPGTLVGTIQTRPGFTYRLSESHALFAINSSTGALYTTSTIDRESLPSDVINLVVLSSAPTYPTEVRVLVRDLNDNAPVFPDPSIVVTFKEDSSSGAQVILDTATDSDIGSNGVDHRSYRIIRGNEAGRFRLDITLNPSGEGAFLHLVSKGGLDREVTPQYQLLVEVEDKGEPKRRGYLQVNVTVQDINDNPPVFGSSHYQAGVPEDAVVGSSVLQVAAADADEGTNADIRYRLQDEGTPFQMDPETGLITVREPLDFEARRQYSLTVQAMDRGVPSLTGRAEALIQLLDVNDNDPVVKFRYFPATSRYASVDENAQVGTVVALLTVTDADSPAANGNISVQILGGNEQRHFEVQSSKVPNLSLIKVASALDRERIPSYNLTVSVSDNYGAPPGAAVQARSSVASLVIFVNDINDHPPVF
The assay is described as follows: ITC; MicroCal ITC200; Fat4 constructs at 30 µM in the sample cell, Dchs1 constructs at 300 µM as titrants; 20 °C; one set of sites.

The next assay has as its target T2, human Fat4(EC1–4) (human, UniProt Q6V0I7 43-475).
T2 construct: human Fat4, EC1–EC4, aa43–475; Form used in ITC; also called wild type Fat4(EC1–4)
T2 sequence: T1 sequence with A112R
The description is as above. Particulars: both partners purified.

Assay [4] concerns the target Human Fat4R152A(EC1-4) (human) (UniProt Q6V0I7). The assay is described as follows: ITC; MicroCal ITC200; Fat4 construct 30 µM in the sample cell, Dchs1 construct 300 µM as titrant; 20 °C; fitted with one set of sites; two independent experiments.
In assay [5] the target is T3, Human Fat4(EC1-4) (human, UniProt Q6V0I7 43-475).
T3 construct: human Fat4, extracellular cadherin domains EC1-EC4, aa43-475; A 3C protease site stands between the protein and the C-terminal BAP-tag and His6; also called WT
T3 sequence: T1 sequence with A112R
Nature of the assay: ITC; MicroCal ITC200; Fat4 constructs 30 µM in the sample cell, Dchs1 constructs 300 µM as titrants; 20 °C; one set of sites. Particulars: both partners purified.

In assay [6] the target is T4, Human Fat4(EC1-4) (human, UniProt Q6V0I7 43-475).
T4 construct: Fat4, human, EC1-EC4, aa43-475; Tags were cleaved only for the constructs meant for co-crystallisation; nothing is said for ITC; also called Fat4 EC1–EC4
T4 sequence: T1 sequence with A112R
Nature of the assay: ITC; MicroCal ITC200; Fat4 construct 30 µM in the sample cell, Dchs1 construct 300 µM as titrant; 20 °C; fitted with one set of sites; two independent experiments. The settings on record: both partners purified.

Results on 14 molecules are retold here after paper PMC9935876, “Structure of the planar cell polarity cadherins Fat4 and Dachsous1” (Nature Communications, 2023).

Positions count from the first letter of the chain named. In names and notes the source's numbering stands. Several values for one entry are separate records, joined by “and”; a condition that tells them apart may be missing. Identical values can stand only once. Like-named read-outs stand apart in the source and are kept apart here.

Sequence of Phosphorylated Drosophila Ft(EC1-4) (Drosophila) (P33450 36-5147): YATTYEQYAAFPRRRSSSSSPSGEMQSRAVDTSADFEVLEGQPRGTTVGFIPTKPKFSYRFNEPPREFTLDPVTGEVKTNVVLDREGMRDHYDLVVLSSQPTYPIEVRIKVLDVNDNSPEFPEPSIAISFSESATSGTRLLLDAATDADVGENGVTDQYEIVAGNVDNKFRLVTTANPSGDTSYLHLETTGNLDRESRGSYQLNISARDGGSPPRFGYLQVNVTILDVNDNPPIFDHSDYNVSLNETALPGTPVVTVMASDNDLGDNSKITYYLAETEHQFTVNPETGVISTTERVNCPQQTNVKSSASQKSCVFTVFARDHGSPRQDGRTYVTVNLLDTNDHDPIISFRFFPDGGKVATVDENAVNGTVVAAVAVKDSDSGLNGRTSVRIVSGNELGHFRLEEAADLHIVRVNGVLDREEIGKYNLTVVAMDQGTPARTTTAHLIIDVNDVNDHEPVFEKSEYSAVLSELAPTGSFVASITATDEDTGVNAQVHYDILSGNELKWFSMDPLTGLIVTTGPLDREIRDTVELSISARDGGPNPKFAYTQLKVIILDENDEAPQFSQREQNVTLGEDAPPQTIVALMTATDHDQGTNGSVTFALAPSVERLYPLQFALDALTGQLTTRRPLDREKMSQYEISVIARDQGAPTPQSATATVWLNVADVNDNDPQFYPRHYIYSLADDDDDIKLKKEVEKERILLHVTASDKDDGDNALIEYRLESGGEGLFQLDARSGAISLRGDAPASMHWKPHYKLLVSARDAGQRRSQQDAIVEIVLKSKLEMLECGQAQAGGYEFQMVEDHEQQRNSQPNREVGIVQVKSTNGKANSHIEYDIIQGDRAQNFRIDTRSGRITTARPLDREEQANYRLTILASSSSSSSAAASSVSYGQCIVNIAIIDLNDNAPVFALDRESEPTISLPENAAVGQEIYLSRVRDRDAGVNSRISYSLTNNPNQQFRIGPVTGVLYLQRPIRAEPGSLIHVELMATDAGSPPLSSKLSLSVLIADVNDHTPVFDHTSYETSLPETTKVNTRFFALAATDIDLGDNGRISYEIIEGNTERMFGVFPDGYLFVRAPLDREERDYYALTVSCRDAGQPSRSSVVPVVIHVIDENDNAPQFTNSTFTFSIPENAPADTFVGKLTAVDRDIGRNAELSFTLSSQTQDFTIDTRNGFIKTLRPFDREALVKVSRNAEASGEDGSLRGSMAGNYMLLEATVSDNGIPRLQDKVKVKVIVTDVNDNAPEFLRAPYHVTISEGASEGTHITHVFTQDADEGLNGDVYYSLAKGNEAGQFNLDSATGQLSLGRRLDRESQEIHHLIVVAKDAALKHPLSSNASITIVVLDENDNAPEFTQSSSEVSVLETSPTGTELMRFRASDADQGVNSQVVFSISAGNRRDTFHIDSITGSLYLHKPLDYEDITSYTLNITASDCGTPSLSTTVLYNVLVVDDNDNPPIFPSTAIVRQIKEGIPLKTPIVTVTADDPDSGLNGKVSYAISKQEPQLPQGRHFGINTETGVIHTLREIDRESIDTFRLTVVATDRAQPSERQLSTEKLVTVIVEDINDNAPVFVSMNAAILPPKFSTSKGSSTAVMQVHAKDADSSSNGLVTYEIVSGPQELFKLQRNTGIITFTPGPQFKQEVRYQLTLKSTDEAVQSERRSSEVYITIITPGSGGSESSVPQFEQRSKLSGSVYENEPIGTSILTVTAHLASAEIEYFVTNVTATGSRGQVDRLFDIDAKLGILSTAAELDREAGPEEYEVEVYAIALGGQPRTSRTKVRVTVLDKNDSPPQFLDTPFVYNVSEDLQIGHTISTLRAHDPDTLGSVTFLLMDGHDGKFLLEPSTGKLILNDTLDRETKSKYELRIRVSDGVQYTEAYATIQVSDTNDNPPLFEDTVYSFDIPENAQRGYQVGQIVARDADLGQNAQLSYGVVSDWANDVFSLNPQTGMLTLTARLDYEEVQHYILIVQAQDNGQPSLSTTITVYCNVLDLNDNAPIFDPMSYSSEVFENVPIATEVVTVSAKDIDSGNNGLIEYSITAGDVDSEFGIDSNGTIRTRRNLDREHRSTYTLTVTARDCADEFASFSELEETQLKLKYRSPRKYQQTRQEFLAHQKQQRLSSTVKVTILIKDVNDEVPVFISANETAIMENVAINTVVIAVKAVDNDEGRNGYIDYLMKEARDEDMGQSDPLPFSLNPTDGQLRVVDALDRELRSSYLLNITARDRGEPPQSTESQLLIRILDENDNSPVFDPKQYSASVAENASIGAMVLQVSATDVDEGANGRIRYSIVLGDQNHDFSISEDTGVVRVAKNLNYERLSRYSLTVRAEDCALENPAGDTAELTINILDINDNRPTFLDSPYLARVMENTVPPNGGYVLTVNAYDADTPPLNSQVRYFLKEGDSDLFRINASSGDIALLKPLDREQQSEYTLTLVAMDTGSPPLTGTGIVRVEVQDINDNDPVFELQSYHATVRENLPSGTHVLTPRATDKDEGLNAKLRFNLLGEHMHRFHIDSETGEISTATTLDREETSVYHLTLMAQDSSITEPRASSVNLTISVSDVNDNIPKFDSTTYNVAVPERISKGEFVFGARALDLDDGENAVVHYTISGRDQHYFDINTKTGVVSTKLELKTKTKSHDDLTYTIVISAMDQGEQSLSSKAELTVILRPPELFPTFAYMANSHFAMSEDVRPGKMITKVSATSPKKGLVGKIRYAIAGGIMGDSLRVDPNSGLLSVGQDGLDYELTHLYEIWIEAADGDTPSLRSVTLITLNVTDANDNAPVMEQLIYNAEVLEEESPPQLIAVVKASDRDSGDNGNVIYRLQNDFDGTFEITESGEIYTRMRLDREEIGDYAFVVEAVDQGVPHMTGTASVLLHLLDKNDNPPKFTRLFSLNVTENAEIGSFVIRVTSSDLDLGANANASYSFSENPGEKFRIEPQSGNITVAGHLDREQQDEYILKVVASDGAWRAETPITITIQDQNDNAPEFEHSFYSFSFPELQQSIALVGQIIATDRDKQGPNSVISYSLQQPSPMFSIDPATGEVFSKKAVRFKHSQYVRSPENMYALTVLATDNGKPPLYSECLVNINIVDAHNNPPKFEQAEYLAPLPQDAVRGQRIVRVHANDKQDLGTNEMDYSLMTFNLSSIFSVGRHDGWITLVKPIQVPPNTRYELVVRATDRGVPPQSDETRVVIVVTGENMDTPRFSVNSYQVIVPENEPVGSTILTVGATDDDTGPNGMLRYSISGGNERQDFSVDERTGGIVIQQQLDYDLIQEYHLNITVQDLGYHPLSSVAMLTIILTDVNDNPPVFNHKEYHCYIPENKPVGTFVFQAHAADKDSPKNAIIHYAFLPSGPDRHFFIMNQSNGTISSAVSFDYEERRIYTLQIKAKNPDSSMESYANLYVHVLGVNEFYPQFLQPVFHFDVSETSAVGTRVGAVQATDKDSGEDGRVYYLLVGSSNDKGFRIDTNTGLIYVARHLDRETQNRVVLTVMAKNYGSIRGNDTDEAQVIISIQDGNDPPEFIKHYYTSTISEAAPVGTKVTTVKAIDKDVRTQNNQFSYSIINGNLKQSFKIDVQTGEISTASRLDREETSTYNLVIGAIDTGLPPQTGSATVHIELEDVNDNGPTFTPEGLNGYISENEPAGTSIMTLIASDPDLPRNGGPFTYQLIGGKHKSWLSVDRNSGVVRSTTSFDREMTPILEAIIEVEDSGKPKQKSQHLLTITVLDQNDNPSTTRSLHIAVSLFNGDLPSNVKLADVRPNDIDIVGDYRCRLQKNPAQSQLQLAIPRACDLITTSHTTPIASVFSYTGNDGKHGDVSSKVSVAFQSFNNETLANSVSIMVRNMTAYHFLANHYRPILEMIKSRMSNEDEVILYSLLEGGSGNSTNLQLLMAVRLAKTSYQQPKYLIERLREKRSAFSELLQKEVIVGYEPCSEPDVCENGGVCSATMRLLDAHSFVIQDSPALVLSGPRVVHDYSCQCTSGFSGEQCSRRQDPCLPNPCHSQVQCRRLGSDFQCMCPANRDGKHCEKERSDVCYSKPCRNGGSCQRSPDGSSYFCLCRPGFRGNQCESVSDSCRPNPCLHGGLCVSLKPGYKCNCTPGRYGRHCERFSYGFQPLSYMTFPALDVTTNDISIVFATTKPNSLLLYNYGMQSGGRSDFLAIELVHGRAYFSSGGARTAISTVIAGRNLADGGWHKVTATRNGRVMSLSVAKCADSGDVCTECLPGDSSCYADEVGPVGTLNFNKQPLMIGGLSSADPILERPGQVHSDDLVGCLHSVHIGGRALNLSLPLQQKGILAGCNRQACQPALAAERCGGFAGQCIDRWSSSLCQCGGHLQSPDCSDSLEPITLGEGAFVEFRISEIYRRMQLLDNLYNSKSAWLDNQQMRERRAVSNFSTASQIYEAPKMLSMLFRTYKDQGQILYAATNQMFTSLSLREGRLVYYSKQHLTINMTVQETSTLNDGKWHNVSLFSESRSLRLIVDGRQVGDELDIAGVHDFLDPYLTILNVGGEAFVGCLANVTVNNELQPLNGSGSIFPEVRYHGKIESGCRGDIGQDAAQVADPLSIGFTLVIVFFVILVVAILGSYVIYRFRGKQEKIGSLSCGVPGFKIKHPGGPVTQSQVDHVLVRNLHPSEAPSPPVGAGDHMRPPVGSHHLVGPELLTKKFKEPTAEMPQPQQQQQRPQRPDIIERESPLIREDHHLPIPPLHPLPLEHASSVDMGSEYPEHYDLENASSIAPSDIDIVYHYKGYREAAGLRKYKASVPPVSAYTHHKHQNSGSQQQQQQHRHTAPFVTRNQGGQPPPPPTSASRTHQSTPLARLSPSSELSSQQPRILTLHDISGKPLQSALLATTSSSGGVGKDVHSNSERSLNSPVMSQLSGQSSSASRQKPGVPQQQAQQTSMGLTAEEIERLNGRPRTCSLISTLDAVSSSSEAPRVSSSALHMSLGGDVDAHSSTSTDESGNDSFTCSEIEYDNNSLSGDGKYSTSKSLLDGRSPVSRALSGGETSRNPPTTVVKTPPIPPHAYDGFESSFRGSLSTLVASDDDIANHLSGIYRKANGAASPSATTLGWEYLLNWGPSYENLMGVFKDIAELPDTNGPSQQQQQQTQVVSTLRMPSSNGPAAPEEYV

Molecule “Phosphorylated Drosophila Ds(EC1-4) (from UniProt Q24292 74-3556) (domain or fragment)” registered a stoichiometry N in assay [1] of 0.751 sites. The dissociation constant (Kd) in assay [2] is 13.6 µM and 11.4 µM. Molecule “Drosophila Ds(EC1–4), phosphorylated (domain or fragment)” came in with a Kd in assay [3] of 12.5 µM.

On to “Drosophila Ds(EC1-4) (from UniProt Q24292 74-3556) (domain or fragment)”, for which the stoichiometry N in assay [1] amounted to 0.777 sites. For the molecule “Drosophila Ds(EC1-4), unmodified (from UniProt Q24292 74-3556) (domain or fragment)”, in [2], the Kd is 4.1 µM and 5.05 µM. As for PCDH15 EC1-EC2 (from UniProt Q99PJ1), in the assay with CDH23 EC1-EC2, the Kd was 2.9 µM. “Drosophila Ds(EC1–4), unmodified (domain or fragment)” came in with a Kd in assay [3] of 4.58 µM.

B1: human Dchs1(EC1–4) (domain or fragment)
chain: DPQAGSLDLQIDEEQPAGTLIGDISAGLPAGTAAPLMYFISAQEGSGVGTDLAIDEHSGVVRTARVLDREQRDRYRFTAVTPDGATVEVTVRVADINDHAPAFPQARAALQVPEHTAFGTRYPLEPARDADAGRLGTQGYALSGDGAGETFRLETRPGPDGTPVPELVVTGELDRENRSHYMLQLEAYDGGSPPRRAQALLDVTLLDINDHAPAFNQSRYHAVVSESLAPGSPVLQVFASDADAGVNGAVTYEINRRQSEGDGPFSIDAHTGLLQLERPLDFEQRRVHELVVQARDGGAHPELGSAFVTVHVRDANDNQPSMTVIFLSADGSPQVSEAAPPGQLVARISVSDPDDGDFAHVNVSLEGGEGHFALSTQDSVIYLVCVARRLDREERDAYNLRVTATDSGSPPLRAEAAFVLHVTDVNDNAPAF
For the molecule B1, the fold decrease in binding affinity against wild type in the assay with Human Fat4(EC1-4) R152A was determined as 9 fold.

B2: human Dchs1(EC1–4) (domain or fragment)
chain: B1 chain
notes: human Dchs1, EC1–EC4, aa43–472; Form used in ITC; also called Dachsous1(EC1–4); wild type Dchs1(EC1–4)
B2 registered a Kd with human Fat4(EC1–4) of 0.47 ± 0.13 µM.

B3: Human Dchs1(EC1-4) (domain or fragment)
chain: B1 chain
Turning to B3, the Kd in assay [4] was 3.39 µM and 5.18 µM; in [4] (mean) it was 4.29 µM.

B4: Human Dchs1(EC1-4) F79A (domain or fragment)
chain: B1 chain with F39A
notes: human Dachsous1 (Dchs1), EC1-EC4, aa43-472, with F79A in EC1; also called Dchs1F79A(EC1-4); Dchs1F79A
For the molecule B4, the “stoichiometry N” value in the assay with Human Fat4(EC1-4) [5] was 0.924 ± 0.00978 sites.

B5: Human Dchs1(EC1-4) R297A (domain or fragment)
chain: B1 chain with R257A
notes: human Dachsous1 (Dchs1), EC1-EC4, aa43-472, with R297A; also called Dchs1R297A(EC1-4); Dchs1R297A
Consider B5, for which the “stoichiometry N” value in the assay with Human Fat4(EC1-4) [5] came out at 1.02 ± 0.138 sites.

B6: Human Dchs1(EC1-3) (domain or fragment)
chain: DPQAGSLDLQIDEEQPAGTLIGDISAGLPAGTAAPLMYFISAQEGSGVGTDLAIDEHSGVVRTARVLDREQRDRYRFTAVTPDGATVEVTVRVADINDHAPAFPQARAALQVPEHTAFGTRYPLEPARDADAGRLGTQGYALSGDGAGETFRLETRPGPDGTPVPELVVTGELDRENRSHYMLQLEAYDGGSPPRRAQALLDVTLLDINDHAPAFNQSRYHAVVSESLAPGSPVLQVFASDADAGVNGAVTYEINRRQSEGDGPFSIDAHTGLLQLERPLDFEQRRVHELVVQARDGGAHPELGSAFVTVHVRDANDNQPSM
notes: human Dachsous1 (Dchs1), extracellular cadherin domains EC1-EC3, aa43-362; A 3C protease site stands between the protein and the C-terminal BAP-tag and His6
Turning to B6, the “stoichiometry N” value in the assay with Human Fat4(EC1-4) [5] worked out at 0.978 ± 0.0137 sites.

B7: human Dchs1(EC1–3) (domain or fragment)
chain: B6 chain
notes: human Dchs1, EC1–EC3, aa43–362; Form used in ITC; also called wild type Dchs1(EC1–3)
Regarding B7, the Kd with human Fat4(EC1–4) turned out to be 0.98 ± 0.12 µM.

B8: Human Dchs1(EC1-3) (domain or fragment)
chain: B6 chain
notes: Dchs1 (Dachsous1), human, EC1-EC3, aa43-362
Take B8: the Kd with Human Fat4(EC1-4) [6] is 0.98 µM and 0.97 µM.
